The values below come from patent US9872921B2, “DE-N-acetyl sialic acid antigens, antibodies thereto, and methods of use in cancer therapy” (priority 2004, dated 2018).

A short description of data set [1]: HPTLC / Western blot reactivity with chemically de-N-acylated GD3. The note with it: mAbs 5 μg/ml. The format is binding. The protocol:
De-N-acyl GM3 and GD3 (Calbiochem) were prepared by suspending 1 mg of ganglioside in 2 ml of 2.5 M tetrabutylammonium hydroxide and 3 ml of butanol then heating the mixture to >100 degrees C. for 4 hours. After cooling the mixture to ambient temperature, the pH was adjusted to about 7 by adding 2 M HCl and the butanol removed by evaporation under a stream of N2. The remaining aqueous layer was dialyzed (1K cut-off dialysis tubing) against PBS buffer and used without further modification as an antigen for ELISA.
Lipids in the extract and in chemically de-N-acylated GD3 were analyzed by separation on high performance thin layer chromatography (HPTLC) and Western blot. Samples of the ganglioside extract, the ganglioside extract that had been treated with sodium borohydride (1 mg/100 μl at ambient temperature for 2 h) to remove the trichloroacetyl protecting group, and chemically de-N-acylated GD3 were spotted onto an aluminum-backed silica gel 60 HPTLC plate (Merck) and the plate developed in chloroform/methanol/0.02% CaCl2 (50:40:10). Plates used for Western blot were dried and dipped in a solution of 0.4% polyisobutylmethacrylate in hexame/chloroform (21:8) for 1 min. The plates were blocked with 1% bovine serum albumin (BSA) in PBS buffer containing 0.1% sodium azide. MAbs (5 μg/ml) in the same blocking buffer were incubated with the plates at 4° C. overnight. […]

The subject of data set [2] is CHP-134 neuroblastoma cells. The data set can be described thus: Flow cytometry binding to cells. It counts as cell-based, human. The protocol:
(§1) Cells (approximately 10^5 per well) were plated onto a flat bottom 96-well tissue culture plate (Nunc) and incubated with growth medium overnight before assay. Cells were detached from the plate by either trypsin (SK-MEL-28) or CDR (CHP-134) before being collected into a 96-round bottom plate, spun at 500 g for 5 minutes and fixed with ice-cold 1% (v/v) formaldehyde. After 20 minutes cells were pelleted by centrifugation (above) and incubated a blocking solution of 3% (v/v) goat serum with and without Triton X-100 (0.5% w/v) for 1 hour. After which the primary antibodies were added and incubated for 2 h or overnight at 4° C. The cells were washed twice by pelleting and resuspension in ice-cold PBS. Secondary antibody (Invitrogen, as described above) was incubated with the cells for at least 1 hour at 4° C. in the dark. After another series of spins and washes (3 times) binding was analyzed by a Guava EastCyte flow cytometer. Control samples were treated with an isotype matched irrelevant antibody (Southern Biotech), which were used to create baseline fluorescence, or positive control mAbs that are reactive with antigens specifically expressed by the cells (i.e. anti-GD3 for SK-MEL 28 cells and anti-NCAM in CHP-134 cells). In addition, specificity of binding was shown for the Jurkat cells by preincubating SEAM 3 with 50 μg/ml N-Pr NmB PS prior to adding the mAb to the cells.
For orientation: Flow cytometry measures light scatter and fluorescence of single cells or particles in a stream.

The test system of data set [3] is Jurkat T-cell leukemia cells. The data set can be described thus: Flow cytometry binding to cells. The format is cell-based, human. The protocol:
as §1

The next data set relates to SK-MEL 28 melanoma cells. The data set can be described thus: Flow cytometry binding to cells. It counts as cell-based, human. The protocol:
as §1

Another data set has as its system SK-MEL 28 cells. The data set can be described thus: Cell cycle analysis by propidium iodide staining and flow cytometry. It counts as cell-based, human. The note with it: 48 h incubation. The protocol: To further assess the affect of SEAM 3 mAb on cell growth, the stage of the cell cycle after treatment with SEAM 3 was determined. In this experiment, the cells were stained with the fluorescent DNA binding dye propidium iodide to characterize cell populations in various stages of the cell cycle and the effects of adding control antibodies, nocodazole (a drug that arrest the cells in mitosis) and SEAM 3.
Approximately 10^5 SK-MEL 28 cells were plated on a 96-well tissue culture plate and allowed to adhere. After 24 h the medium was replaced with one that had either antibody or drug and incubated for a further 48 h. Cells were spun (to collect any cells that may have detached), and fixed in 70% ice-cold methanol (added drop wise) for at least 30 minutes at 4° C. The cells were washed twice with PBS, and to ensure that only DNA was stained, the fixed cells were treated with ribonuclease I (100 μg/ml, source) for 30 minutes at 37° C. Propidium iodide (50 μg/ml) was added and samples were analyzed using a Guava EasyCyte flow cytometer.

The subject of another data set is CHP-134 neuroblastoma. The note with it: approximately proportional to level of antigen on cell surface.
The test system of data set [4] is Jurkat cells (acute lymphoblastic T-cell leukemia). The note with it: approximately proportional to level of antigen on cell surface.

B1: SEAM 3: murine anti-N-Pr NmB polysaccharide monoclonal antibody (IgG2b), ATCC Deposit No. HB-12170 (antibody, V domains shown)
VH: EVKLQESGGGLVQPGDSLSLSCAASGFTFTPYYMGWVRQPPGKALEWLGYIRNKANGYTTEYSASVKGRFTISRDNSQSILYLQMNALRAEDSATYYCARYARGTVDSWGQGTTLTVS
VL: DIVMTQSPLTLSVTIGQPASISCKSSQSLLHSNGKTYLNWLLQRPGQSPKLLIYLVSKLESGVPDRFSGSGSGTDFTLKISRVEAEDLGLYYCLQIIHFPHTFGAGTKLELKRA
modifications: mouse
For B1, in data set [1], the “reactivity with de-N-acyl GD3 / de-N-acyl gangliosides produced by alkali treatment” value is “does not react”. Further, the “binding to internal antigen by flow cytometry” value (in data set [2] (+Triton X-100); in data set [3] (+Triton X-100); in the data set on SK-MEL 28 melanoma cells (+Triton X-100)) was “larger amounts of internal SEAM 3-reactive antigen” throughout. The entries for the “binding to cell surface by flow cytometry” value (in data set [2] (−Triton); in data set [3] (−Triton); with SK-MEL 28 melanoma cells (−Triton)) were “greatest amount of binding”, “least” and “binds to the surface of all three cell lines”, respectively. In addition, the “effect on cell cycle phase distribution” value with SK-MEL 28 cells is “reduced the proportion of cells in Go, S-phase and G2/M Phase, while increasing the number in pre-Go”. Moreover, the cytotoxic effect result (with CHP-134 neuroblastoma; in data set [4]) was “cytotoxic effect of SEAM 3 was observed” each time.
